This test concerns the target KIF1A-201(1-482)-His (mouse). The test is described as follows: SEC; Superdex 200 Increase 10/300 GL; 250 µg of each protein at about 1.2 µg/µl; 20 mM PIPES-KOH pH 7.0, 150 mM KCl, 1 mM MgCl2, 0.1% Tween 20; size from a calibration curve of globular standards; monomer to dimer. (In general: SEC sorts molecules by how far they enter the pores of the column.)

The values below come from paper PMC12436618.

By stoichiometry N is commonly meant a count of units in the complex or per binding partner. “KIF1A-201(1-482)-His (domain or fragment)” yielded a stoichiometry N of 2.
